Target: in vitro translated 35S-labeled ARF-BP1 (1015-4374) (human, UniProt Q7Z6Z7 1015-4374, 35S-labeled (in vitro translation))
Assay: GST pull-down with 35S-labeled in vitro translated protein

B1: GST-C-ARF, the C terminus of ARF (65-132) (other, UniProt Q8N726 65-132, looked up)
chain: GHDDGQRPSGGAAAAPRRGAQLRRPRHSHPTRARRCPGGLPGHAGGAAPGRGAAGRARCLGPSARGPG
notes: range 65-132; also called CARF-(65-132); not shown: glutathione S-transferase (GST) tag of the pGEX vector
binding result: no binding
